In the supplement of paper PMC10567573:
± gives the standard deviation.

Assay: protein stability index of a GFP-peptide fusion (GPS, HEK-293T) (PSI 1-6); higher = more stable
[1] = treatment: DMSO, c terminus: a fixed tail appended
[2] = treatment: MLN4924 1 uM, 8 h, c terminus: a fixed tail appended
[3] = treatment: DMSO, c terminus: native
[4] = treatment: MLN4924 1 uM, 8 h, c terminus: native
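Note: 24-mer peptide tiles fused after GFP, lentivirally expressed, FACS-sorted into six equal bins by GFP/DsRed ratio, decoded by Illumina sequencing, PSI is the read-weighted mean bin number.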

Sequence | protein stability index [1] | protein stability index [2] | protein stability index [3] | protein stability index [4]
KLSSFYSLKLIKRLYVDKSLNLST [SERPINB5] | 2.46 ± 0.42 | 2.18 ± 0.36 |  | 
KLTLENFYSNLILQHEERETRQKK [STK38L] | 3.24 ± 0.39 | 3.29 ± 0.46 |  | 
KNIFRIRFHDPSPAQSHTLQANDV [NET1] | 2.76 ± 0.31 | 3.06 ± 0.24 |  | 
KQKNAYIGTQGPLENTYRDFWLMV [PTPN9] | 2.44 ± 0.51 | 2.4 ± 0.36 |  | 
KRQVPTEQARAYAEKNCMTFFEVS [RAB40C] | 3.16 ± 0.36 | 3.29 ± 0.37 |  | 
KSMGLKKKAFVWARNIGFKVNSKK [ACSBG2] | 2.91 ± 0.3 | 2.83 ± 0.37 |  | 
KTAGKENHFDMHRVGKWHQDFPVK [ZNF75A] | 3.09 ± 0.36 | 3.38 ± 0.13 |  | 
KTTLARQLQHDFPRALIFSTDDFF [N4BP2L1] | 2.41 ± 0.28 | 2.53 ± 0.25 |  | 
KVMKQPRCGVPDVAQFVLTEGNPR [MMP1] | 3.32 ± 0.1 | 3.38 ± 0.17 |  | 
LADYLVPILAPRIFGSNKWTTEQQ [ARL6IP1] | 2.34 ± 0.49 | 2.16 ± 0.16 |  | 
LANRLCLPHLVALTEQYTVTGLME [RHOBTB2] | 2.57 ± 0.6 | 2.43 ± 0.39 |  | 
LAQTRAEGQRQAQEYEALLNIKVK [KRT18] | 4.26 ± 0.38 | 4.17 ± 0.15 |  | 
LCAIAGVLTIALPVPVIVSNFNYF [KCNA1] | 3.23 ± 0.18 | 3.04 ± 0.32 |  | 
LCKEMVPLAEQTPLTLQSQPKEPQ [ZSCAN9] | 5 ± 0.13 | 5.04 ± 0.24 |  | 
LCQHFEAVHSGTPVTNNLLEKCKT [SPACA9] | 4.14 ± 0.13 | 4.19 ± 0.17 |  | 
LCREEPVVQGPDGRLELKPLLLRL [FANCE] | 2.19 ± 0.25 | 2.48 ± 0.15 |  | 
LDKLLQGGIETGSITEMFGEFRTG [RAD51] | 3.07 ± 0.26 | 3.06 ± 0.28 |  | 
LDPVLQAPGTGPAQTELLCCLVKM [FANCE] | 2.47 ± 0.32 | 2.32 ± 0.49 |  | 
LEAHCVEFLTKHLRADNAFMLLTQ [BTBD1] | 2.55 ± 0.76 | 2.81 ± 0.47 |  | 
LEAQPYEAVFLRAVKLYNSGDFRS [P3H4] | 2.42 ± 0.27 | 2.23 ± 0.28 |  | 
LEEDLYELFKKDPGFDRGQFHKQI [PI4K2A] | 3.56 ± 0.14 | 3.56 ± 0.19 |  | 
LEEQLQGWGEVMLMADKVLRWERA [ARL6IP1] | 2.49 ± 0.31 | 2.49 ± 0.27 |  | 
LEKDTMDNWDEKKLEEVVNKKHGE [ZC3H15] | 5.54 ± 0.095 | 5.46 ± 0.19 |  | 

Sequence | protein stability index [1] | protein stability index [2] | protein stability index [3] | protein stability index [4]
LEKESDTPLQQVSIEEILEEQRVE [LSM1] | 5.26 ± 0.26 | 5.53 ± 0.098 |  | 
LEKGSFVGNISKDLGLAPRELAER [PCDHGA10] | 4.43 ± 0.35 | 4.54 ± 0.33 |  | 
LFEGLGRDKAEELLQLPDTKVGSF [SLA] | 3.82 ± 0.28 | 4.13 ± 0.15 |  | 
LFRCIQNMPETLPNNSCYSAGIAK [TNFSF13B] | 2.63 ± 0.3 | 2.68 ± 0.16 |  | 
LFYDDYYEDGEVEEEADSCFGDDE [CDC34] | 4.79 ± 0.17 | 4.78 ± 0.3 |  | 
LGHAAAFSDDCDLPSAQDINRLVG [GLT8D2] | 4.23 ± 0.18 | 4.43 ± 0.24 |  | 
LGKLPPQYALELLTVYAWERGSMK [OAS1] | 2.31 ± 0.61 | 2.36 ± 0.41 |  | 
LGMVGLFGTIISGIQLLIVEYKDI [SLC35F2] | 3.16 ± 0.42 | 3.53 ± 0.41 |  | 
LGRFSLTPAEGDTEEDDGFVDILE [CDC25B] | 4.66 ± 0.74 | 5.06 ± 0.1 |  | 
LGSKHKVCMDLRANLKQVKKEDTE [TNNI2] | 4.76 ± 0.16 | 4.94 ± 0.23 |  | 
LHDCAESGSLEILQLLLGCKARME [FEM1A] | 2.41 ± 0.31 | 2.52 ± 0.29 |  | 
LIESEAPPKASEQETAKEEDGSVE [C18orf25] | 5.59 ± 0.31 | 5.77 ± 0.26 |  | 
LIGAAAFLGGVVRMTISLTVILIE [CLCN6] | 3.27 ± 0.53 | 2.75 ± 1.3 |  | 
LIIQAGIKEVIFMSDKYHDSDEAT [DCTD] | 2.16 ± 0.28 | 2.08 ± 0.089 |  | 
LKENNFQPYPLPHVRHMAYQLCHA [CLK3] | 2.46 ± 0.12 | 2.21 ± 0.26 |  | 
LKQLKHPNLVNLIEVFRRKRKMHL [CDKL4] | 2.44 ± 0.43 | 2.58 ± 0.3 |  | 
LKRSIPQVSPVRRAPSRRHGVRAK [CPN1] | 4.58 ± 0.23 | 4.67 ± 0.17 |  | 
LKTQSLEGKRKAFYTCASHVTVVI [OR4A15] | 2.91 ± 0.35 | 3.24 ± 0.46 |  | 
LLAWRCTKLSLLAIHGYTVWAHNL [FBXO33] | 3.15 ± 0.21 | 3.13 ± 0.34 |  | 
LLDHNANIDIQNGFLLRYAVIKSN [ASB7] | 2.53 ± 0.17 | 2.14 ± 0.2 |  | 
LLDLQPDFSSGGAAAAAAPAPPPP [SNAP91] | 4.68 ± 0.23 | 4.77 ± 0.22 |  | 
LLEKDYFGLTYRDAENQKNWLDPA [EPB41L3] | 3.1 ± 0.29 | 3.48 ± 0.29 |  | 
LLFDMTTHPVTNTTEKQRLVKKLQ [GOLPH3L] | 2.61 ± 0.26 | 2.83 ± 0.41 |  | 

Sequence | protein stability index [1] | protein stability index [2] | protein stability index [3] | protein stability index [4]
LLFMTSRVRFGQQKRYQDWFQRQY [INTS3] | 1.99 ± 0.58 | 2.24 ± 0.64 |  | 
LLRQQLMRAQAQEQERRERREQAA [TFE3] | 3.82 ± 0.27 | 4.2 ± 0.15 |  | 
LLSGAFKKRRLPPVHIHPAFARQA [FOXJ1] | 2.21 ± 0.1 | 2.54 ± 0.36 |  | 
LLVFLILVGIFILAVSRPRSSPDD [SCARA5] | 2.08 ± 0.43 | 2.07 ± 0.19 |  | 
LLYKDGFSTILHLLLGSPHPAATA [LPCAT4] | 2.71 ± 0.28 | 2.57 ± 0.54 |  | 
LNEMRDQYEKMAEKNRKDAEDWFF [KRT17] | 4.14 ± 0.2 | 4.1 ± 0.19 |  | 
LNLGSGTGYLSSMVGLILGPFGVN [PCMTD2] | 2.42 ± 0.51 | 2.48 ± 0.38 |  | 
LNLGSGTGYLSTMVGLILGPFGIN [PCMTD1] | 3.33 ± 0.73 | 2.87 ± 0.49 |  | 
LNRRNGSLRIALSEHLKQRREVAK [EDNRA] | 3.27 ± 0.45 | 3.25 ± 0.27 |  | 
LNVGNERYVFEAVIRWIAHDTEIR [GAN] | 2.53 ± 0.57 | 2.61 ± 0.56 |  | 
LPELLLGALPVGSNLTSNLASLVS [RETREG3] | 2.17 ± 0.2 | 2.17 ± 0.28 |  | 
LPEQVDIIISEPMGYMLFNERMLE [CARM1] | 2.24 ± 0.69 | 2.12 ± 0.42 |  | 
LPFKPFAIILPILLNIRVATKYV [MIA2] |  |  | 2.42 ± 0.81 | 3.36 ± 1.6
LPLLSPKFLVGTVGSDPLIKSDEE [KLHL20] | 4.33 ± 0.051 | 4.43 ± 0.073 |  | 
LPRGATAAVLAPDSSNASSEPSS [SEPHS2] |  |  | 5.31 ± 0.21 | 5.53 ± 0.17
LQAIKAAIMLLPDENREVLQTLLY [DLC1] | 2.23 ± 0.42 | 2.22 ± 0.16 |  | 
LQALDPQQCVDKESSLGSESEEEE [SLC22A15] | 5.56 ± 0.28 | 5.59 ± 0.1 |  | 
LQAQVQYQQQHEQQKKDLEILHQQ [SASS6] | 4.73 ± 0.14 | 4.93 ± 0.19 |  | 
LQLEACGMRRKSLLTRKVICKSDA [GOLPH3] | 2.95 ± 0.58 | 3.07 ± 0.43 |  | 
LQQLRARLQGLEADCVRGPDGVCL [PBXIP1] | 2.7 ± 0.29 | 3.01 ± 0.35 |  | 
LQRGEALSALDSKANNLSSLSKKY [SEC22B] | 4.46 ± 0.11 | 4.34 ± 0.23 |  | 
LQSAPDVKGRVRCLTAGPEVAAQL [ZSWIM9] | 3.51 ± 0.28 | 3.6 ± 0.058 |  | 
LQVTEDVNSSIKTFFCPNDTYNDM [CLCN6] | 3.66 ± 0.22 | 3.65 ± 0.25 |  | 

Sequence | protein stability index [1] | protein stability index [2] | protein stability index [3] | protein stability index [4]
LRALGAQIEKTTNREACRDLSGRR [SDE2] | 4.21 ± 0.15 | 4.48 ± 0.26 |  | 
LRGGGQVLLGWTLHYFPFFLMGRV [POMT2] | 3.01 ± 0.44 | 2.99 ± 0.37 |  | 
LRHFFLVEDLVDSLKLALLFYILT [RTN2] | 2.79 ± 0.79 | 2.45 ± 0.15 |  | 
LRIPEGPIDQGPAIGRVRVLEEQL [FUT8] | 3.69 ± 0.37 | 3.85 ± 0.19 |  | 
LRQQLVVSKELRMYDEKAHEWKSL [KLHL13] | 2.93 ± 0.11 | 2.98 ± 0.15 |  | 
LRRAWFSWPRASPASGASSIKPEA [SCNN1D] | 2.99 ± 0.18 | 3.04 ± 0.19 |  | 
LRVHLKMVDSFHRTSLQYGIMCLK [PPFIA4] | 2.99 ± 0.047 | 2.9 ± 1 |  | 
LSKEYWDCLEGKKSKHAPRGTHLW [ELF3] | 2.82 ± 0.45 | 3.17 ± 0.24 |  | 
LSNLTHVLYPVPLESYEDIHGTLH [PRAME] | 2.5 ± 0.3 | 2.69 ± 0.27 |  | 
LSQALNGLSDRAKEAKEFLVQLRN [TRIM9] | 3.29 ± 0.41 | 3.26 ± 0.32 |  | 
LSVDPEEEREEGPPRIPQADQWKS [RHOBTB1] | 5.28 ± 0.075 | 5.26 ± 0.24 |  | 
LTCALMLLNTDLHGHNIGKKMSCQ [PSD2] | 2.54 ± 0.49 | 2.41 ± 0.74 |  | 
LTFFAFLHCWLNAFAEMLRFGDRM [SOAT1] | 3.4 ± 0.23 | 2.9 ± 0.5 |  | 
LTFLTKQEILLAHRRFCELLPQEQ [CIB1] | 2.4 ± 0.44 | 2.55 ± 0.19 |  | 
LTIMPYNSAHHCVVEVENFLFVLG [KLHL14] | 3.26 ± 0.64 | 3.02 ± 0.32 |  | 
LTSADRETAEEVSARIVQVVTAEA [MAP2] | 4.86 ± 0.28 | 4.89 ± 0.42 |  | 
LTTFQDQLNRRGEFIQEIRRQLEA [OAS1] | 3.3 ± 0.35 | 3.29 ± 0.27 |  | 
LTVLPKLQARERGEEQVELSTIEE [C2CD2L] | 5.14 ± 0.17 | 4.96 ± 0.54 |  | 
LVDQVTGVSRGVGFIRFDKRIEAE [ELAVL3] | 2.97 ± 0.52 | 2.88 ± 0.62 |  | 
LVGLTVIGAFLNLVVLRFLTMNSE [KCNK9] | 3.42 ± 0.46 | 3.42 ± 0.25 |  | 
